For one substance, IC50 results are on record in publication PMC5381946 (PLoS Pathogens, 2017).

The test system of this series is c-Jun;c-Fos (;). Put plainly: EMSA. The settings on record: EMSA: 10 mM Tris-HCl pH 7.5, 50 mM NaCl, 5 mM MgCl2, 20 min at 37 C, then 20 min with DNA, 5% native TBE-PAGE at 4 C.

Broadly, the IC50 is the midpoint of a concentration-inhibition curve. With AP-1 oligonucleotide, the half-inhibitory concentration (IC50) turned out to be 17 µM (reduced APE1 + inhibitor C10 (IC50 of the compound, not of DNA)) and 36 µM (reduced APE1 + inhibitor E3330 (IC50 of the compound, not of DNA)).
